Measured values as given in PMC6042391.
Where a chain is given by its changes, count along the chain named. Blank lines part the entries; values can stand above or below the binder they belong to.

Target: T1, tau peptide V1089–24
T1 sequence (peptide, phosphoserine at Ser422; biotin (position not stated)): SSTGSIDMVDSPQLATLA
Test: BLI; biotinylated peptide V1089–24 (1 μg/ml) on streptavidin biosensors; 13 Fab concentrations in ForteBio's kinetics buffer; 600 s association, 600 s dissociation; steady state analysis

- Kd: 240 nM
B1: Fab-dmCBTAU-22.1 (Fab, V domains shown)
VH: QVQLVQSGAEVKKPGAPVKVSCETSGYRFSDYFVHWVRQAPGQGPEWIGRIRPNSGGTKYAQKFQGRVTMTRDMSMNTAYMELSGLRSDDTAVYYCVRGHCDGTTCSRAYWGQGTLVTVSS
VL: DVVMTQSPLSLPVTPGEPASISCRSSQSLLHRSGHKYLHWYLQRPGQSPQVLIYLGSNRASGVPDRFSGSGSGTDFTLKISRVEAEDVGLYYCMQTLQTPWTFGQGTKVEIK

- Kd: 5600 nM
B2: Fab-CBTAU-22.1 (Fab, V domains shown)
VH: B1 VH with F33N, R52S
VL: B1 VL
